Assay results taken from patent publication US20220251202A1 (ASHER BIOTHERAPEUTICS, published 2022).
Residue numbers refer to the chain shown, from its start. Each block holds one binder with its values, some of them ahead of it.

Target: T1, mouse CD8 (on mouse CD8+ T cells) (mouse, UniProt P01731 28-247; P10300 22-213)
T1 construct: whole, on cells
Assay: flow cytometry on mouse splenocytes, anti-hFc MFI
Description: Fresh splenocytes were incubated with the indicated antibodies for 2 hours at 4° C. The cells were then stained with antibodies against CD3, CD4, CD8 and anti-hFc. anti-hFc was used to measure the binding of CD8-IL2 fusion containing hFc. Cells were washed and analyzed by flow cytometry.
The binding affinity of anti-mouse CD8 antibodies was determined through flow cytometry analysis. […] The xCD8ab2.1 clone is derived from xCD8ab2 by introduction of mutations N95A (VH) and D92A (VK). After incubation with the anti-mouse CD8 antibody, the cells were then stained with antibodies against CD3, CD4, CD8 and anti-hFc (HP6017, Biolegend), the latter of which was used to measure the binding of CD8-IL2 fusion containing hFc. Stained cells were washed and analyzed by flow cytometry and mean fluorescence intensity (MFI) of staining with anti-hFc was used to denote binding.

binding result: binds
B1: xmCD8ab2 (published clone YTS156.7.7) (antibody, V domains shown)
VH: EVKLQESGPSLVQPSQTLSLTCSVSGFSLISDSVHWVRQPPGKGLEWMGGIWADGSTDYNSALKSRLSISRDTSKSQGFLKMNSLQTDDTAIYFCTSNRESYYFDYWGQGTMVTVSS
VL: DIQMTQSPASLSASLGDKVTITCQASQNIDKYIAWYQQKPGKAPRQLIHYTSTLVSGTPSRFSGSGSGRDYSFSISSVESEDIASYYCLQYDTLYTFGAGTKLELK
notes: Carries a human Fc; also called xCD8ab2

binding result: binds
B2: xmCD8ab2.1 (antibody, V domains shown)
VH: B1 VH with N98A
VL: B1 VL with D92A
notes: Carries a human Fc; also called xCD8ab2.1
